From patent publication US20250027068
Positions count from the first letter of the chain named.

B1: PRT-65 (protein)
chain: MANQEIRYSEVTPYHVTSVWTKGVTPPANFTQGEDVFHAPYVANQGWYDITKTFNGKDDLLCGAATAGNMLHWWFDQNKDQIKRYLEEHPEKQKINFNGEQMFDVKEAIDTKNHQLDSKLFEYFKEKAFPYLSTKHLGVFPDLVIDMFINGYRLSLTNHGPTPVKEGSKDPRGGIFDAVFTRGDQSKLLTSRHDFKEKNLKEISDLIKKELTEGKALGLSHTYANVRINHVINLWGADFDSNGNLKAIYVTDSDSNASIGMKKYFVGVNSAGKVAISAKEIKEDNIGAQVLGLFTLSTGQDSWNQTN
B2: PRT-627 (protein)
chain: MQITSVWTKGVTPLTPEQFRYNNEDVIHAPYLAHQGWYDITKAFDGKDNLLCGAATAGNMLHWWFDQNKEEIEAYLKKYGETQKIIFNNQELFDLKAAIDTKDSQTNSQLFNYFRDKAFPNLSARQLGVMPDLVLDMFINGYYLNVFKTQSTDVNRPYQDKDKRGGIFDAVFTRGDQTTLLTARHDLKNKGLNDISTIIKQELTEGRALALSHTYANVSISHVINLWGADFNAEGNLEAIYVTDSDANASIGMKKYFVGINAHGHVAISAKKIEGENIGAQVLGLFTLSSGKDIWQKLSLEHHHHHH
B3: PRT-612 (protein)
chain: B2 chain with E70T, K77S, Y79H, G80P, T82K, K96R, D100N, T101S
B4: PRT-606 (protein)
chain: B2 chain with E70T, K77S, G80P, E81D, T82K, D293E
B5: PRT-622 (protein)
chain: MQITSVWTKGVTPLTPEQFRYNNEDVIHAPYLAHQGWYDITKAFDGKDNLLCGAATAGNMLHWWFDQNKTEIEAYLSKHPEKQKIIFNNQELFDLKAAIDTKDSQTNSQLFNYFRDKAFPNLSARQLGVMPDLVLDMFINGYYLNVFKTQSTDVNRPYQDKDKRGGIFDAVFTRGDQTTLLTARHDLKNKTLKEISDIIKQELQSGRALALSHTYANVSISHVINLWGADFNSEGNLIAIYVTDSDANASIGMKKYFVGINAHGHVAISAKKIEGENIGAQVLGLFTLSSGKDIWQKLSLEHHHHHH
B6: PRT-655 (protein)
chain: MQITSVWTKGVTPLTPEQFRYNNEDVIHAPYLAHQGWYDITKAFDGKDNLLCGAATAGNMLHWWFDQNKTEIEAYLSKHPEKQKIIFNNQELFDLKAAIDTKDSQTNSQLFNYFRDKAFPNLSARQLGVMPDLVLDMFINGYYLNVFKTQSTDVNRPYQDKDKRGGIFDAVFTRGDQTTLLTARHDLKNKGLNDISTIIKQELTEGRALALSHKTGNGGSSHVINLWGADFNAEGNLEAIYVTDSDANASIGMKKYFVGINAHGHVAISAKKIEGEDVGAQVLGLFTLSSGKDIWQKLSLEHHHHHH

What follows are proteins tested against pooled human IgG.

Going from B1 to B2, the Enzyme Activity Endpoint Assay (purified): Fab′2 rises from 35 ng/µL to 767 ng/µL.

Compared with B3, B4 is lower in Enzyme Activity Endpoint Assay (purified): Fab′2: 986 ng/µL for the first, 737 ng/µL for the second.

Going from B5 to B6, the Enzyme Activity Endpoint Assay (purified): Fab′2 falls from 823 ng/µL to 471 ng/µL.

Compared with B1, B2 is higher in Enzyme Activity Endpoint Assay (purified): Fc: 100 ng/µL for the first, 415 ng/µL for the second.

First: B3
Second: B4
The Enzyme Activity Endpoint Assay (purified): Fc of the first is higher: 533 ng/µL for the first, 406 ng/µL for the second.

Going from B5 to B6, the Enzyme Activity Endpoint Assay (purified): Fc falls from 423 ng/µL to 0 ng/µL.

Compared with B1, B2 is higher in Enzyme Activity Endpoint Assay (purified): IgG: 26 ng/µL for the first, 124 ng/µL for the second.

B3 and B4 are the same in Enzyme Activity Endpoint Assay (purified): IgG: 0 ng/µL for the first, 0 ng/µL for the second.

Going from B5 to B6, the Enzyme Activity Endpoint Assay (purified): IgG rises from 0 ng/µL to 1380 ng/µL.

Going from B1 to B2, the Enzyme Activity Endpoint Assay (purified): scIgG rises from 34 ng/µL to 187 ng/µL.

B3 and B4 are the same in Enzyme Activity Endpoint Assay (purified): scIgG: 0 ng/µL for the first, 0 ng/µL for the second.

Going from B5 to B6, the Enzyme Activity Endpoint Assay (purified): scIgG rises from 0 ng/µL to 15 ng/µL.
